# Laboratory results: the supplement of paper PMC6379048
# pEC50: −log10 of the molar value.
# Key:
# Assay in all cases: EC50 of free RNA motif oligo competing protein binding to immobilised probe
# PINX1 = biological target: T1, PINX1 (UniProt Q96BK5)
# T1 sequence: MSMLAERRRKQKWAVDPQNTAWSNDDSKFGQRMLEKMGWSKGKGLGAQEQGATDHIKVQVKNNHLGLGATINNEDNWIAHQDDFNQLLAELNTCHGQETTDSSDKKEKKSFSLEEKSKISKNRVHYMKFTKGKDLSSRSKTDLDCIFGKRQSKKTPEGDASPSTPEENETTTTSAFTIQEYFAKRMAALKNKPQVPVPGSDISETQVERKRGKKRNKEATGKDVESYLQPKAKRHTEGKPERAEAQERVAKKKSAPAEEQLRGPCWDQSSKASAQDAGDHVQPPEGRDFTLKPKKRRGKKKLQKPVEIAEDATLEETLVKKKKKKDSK
# How it was run: (§1)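 Over three biological replicates and two independent experiments, proteins captured on NHS-Sepharose beads carrying 5′-amino-C6 RNA oligos were quantified by label-free LC-MS/MS and normalised to the control. Capture lasted 30 min at 4°C and followed a 1 h pre-incubation at 4°C of HEK293-FT lysate (2.5 mg protein/well) with the same oligos in free form (0 nM to 30 μM). EC50 was taken from a four-parameter log-logistic fit, and Kd was EC50 corrected by a protein-dependent depletion factor.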
# IFIT5 = biological target: T2, IFIT5 (UniProt Q13325)
# T2 sequence: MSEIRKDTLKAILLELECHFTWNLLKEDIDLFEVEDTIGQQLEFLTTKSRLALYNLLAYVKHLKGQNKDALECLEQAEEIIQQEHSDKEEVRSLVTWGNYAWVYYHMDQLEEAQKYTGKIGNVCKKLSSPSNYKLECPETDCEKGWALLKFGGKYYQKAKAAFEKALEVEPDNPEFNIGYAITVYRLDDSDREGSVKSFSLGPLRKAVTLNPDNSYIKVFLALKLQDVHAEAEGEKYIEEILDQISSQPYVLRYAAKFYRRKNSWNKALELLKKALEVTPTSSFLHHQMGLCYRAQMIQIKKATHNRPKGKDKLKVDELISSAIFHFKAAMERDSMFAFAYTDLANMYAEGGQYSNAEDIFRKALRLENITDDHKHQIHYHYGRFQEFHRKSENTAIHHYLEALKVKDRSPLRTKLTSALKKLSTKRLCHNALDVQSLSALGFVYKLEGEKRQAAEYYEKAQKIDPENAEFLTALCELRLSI
# How it was run: as §1
# RPS10 = RPS10 (UniProt P46783)
# How it was run: as §1
# MRPS26 = MRPS26 (UniProt Q9BYN8)
# How it was run: as §1
sequence,measurement,setting,value
AAUAAA,pEC50,PINX1,5.67
same,pEC50,IFIT5,5.92
CUGUCCU,pEC50,RPS10,6.65
UAUUUAU,pEC50,MRPS26,7.46
